From patent US20120128661A1 (ALETHIA BIOTHERAPEUTICS, published 2012)
Changes are numbered by the printed parent chain. Where “and” joins values, the source holds several entries; their conditions need not be identical. Identical values can stand only once. Like-named read-outs stand apart in the source and are kept apart here.

Columns and labels:
[1] = biological target: T1, Fc-fused truncated mutant of KAAG1 spanning amino acids 1-35 (human); experiment: ELISA, Fab plate on Fc-0447 1-35
T1 construct: Made and purified like the full-length Fc-KAAG1; also called KAAG1 1-35
T1 chain: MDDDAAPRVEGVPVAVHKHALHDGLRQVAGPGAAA

[2] = biological target: T2, recombinant Fc-KAAG1 fusion protein (full-length human KAAG1 fused to human Fc, from pYD5-0447 in 293E cells) (human, UniProt Q9UBP8 1-84, biotinylated with NHS-biotin for the ELISA (sites not given)); experiment: ELISA, 1 ng Fab/well on Fc-KAAG1 [D00012 Figure 7C]
T2 construct: Order of parts follows the printed name Fc-KAAG1; also called recombinant KAAG1; not shown: its limits and the linker to KAAG
T2 sequence: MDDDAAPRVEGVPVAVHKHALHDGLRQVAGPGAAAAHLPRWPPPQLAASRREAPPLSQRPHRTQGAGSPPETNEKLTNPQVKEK
Description: (§1) The 96-well master plate of monoclonal preparations contained different concentrations of purified anti-KAAG1 Fabs in each well. A second stock master plate was prepared by diluting the Fabs to a final concentration of 10 μg/ml from which all subsequent dilutions were performed for ELISA measurements. To carry out the binding of Fc-KAAG1 to the monoclonal preparations, the Fc-KAAG1 was biotinylated with NHS-biotin (Pierce, Rockford, Ill.) and 10 ng/well was coated in a streptavidin 96-well plate. One nanogram of each Fab monoclonal preparation was added to each well and incubated at room temperature for 30 minutes. Bound antibody was detected with HRP-conjugated mouse anti-kappa light chain antibody in the presence of TMB liquid substrate (Sigma-Aldrich Canada Ltd., Oakville, ON) and readings were conducted at 450 nm in microtiter plate reader.

Fc-0447 1-60 (human) = Fc-0447 1-60 (human) (UniProt Q9UBP8); experiment: ELISA, Fab plate on Fc-0447 1-60
[3] = biological target: T2, recombinant Fc-KAAG1 fusion protein …; experiment: ELISA on recombinant Fc-KAAG1
Description: as §1
Expression of human IgG1s in 293E cells—The expression vectors prepared above that encoded the light and heavy chain immunoglobulins were expressed in 293E cells using the transient transfection system (Durocher et al., 2002). The methods used for co-transfecting the light and heavy chain expression vectors were described in Example 5. […] The ability of the chimeric anti-KAAG1 monoclonal antibodies to bind to recombinant Fc-KAAG1 was measured in the ELISA and compared with the original mouse Fabs. The method was described in Example 5. […]

[4] = biological target: T3, monomeric recombinant KAAG1 (human, UniProt Q9UBP8 1-84, limits assumed); experiment: SPR (Biacore); antibody captured on anti-human Fc, monomeric KAAG1 injected, 1:1 fit, average KD; humanized light chain, chimeric heavy chain (HC)
T3 construct: Analyte of the Biacore experiment
T3 sequence: T2 sequence
Description: (§2) More precise measurements were conducted using Surface Plasmon Resonance (SPR) in a Biacore instrument. Kinetic analysis was used to compare the affinity of the chimeric 3D3 with the h3D3 as well as with hybrid antibodies encompassing different permutations of the light and heavy chains (see FIG. 18B). Briefly, anti-human Fc was immobilized on the Biacore sensor chip and chimeric or h3D3 was captured on the chip. Different concentrations of monomeric recombinant KAAG1 were injected and the data were globally fitted to a simple 1:1 model to determine the kinetic parameters of the interaction.

[5] = biological target: T3, monomeric recombinant KAAG1; experiment: SPR (Biacore), antibody captured on anti-human Fc, monomeric KAAG1 injected, 1:1 model
Description: as §2

[6] = biological target: T2, recombinant Fc-KAAG1 fusion protein …; experiment: ELISA on recombinant Fc-KAAG1; remark: listed apart in the source
[7] = biological target: T3, monomeric recombinant KAAG1; experiment: SPR (Biacore); antibody captured on anti-human Fc, monomeric KAAG1 injected, 1:1 fit, average KD; chimeric 3D3 tabulated as m3D3 in FIG. 18B
Description: as §2

[8] = biological target: T3, monomeric recombinant KAAG1; experiment: SPR (Biacore); antibody captured on anti-human Fc, monomeric KAAG1 injected, 1:1 fit, average KD; chimeric light + chimeric heavy chain co-expressed, 'CC' of the permutation set
Description: as §2

[9] = biological target: T3, monomeric recombinant KAAG1; experiment: SPR (Biacore); antibody captured on anti-human Fc, monomeric KAAG1 injected, 1:1 fit, average KD; chimeric light chain, humanized heavy chain (CH)
Description: as §2

[10] = biological target: T3, monomeric recombinant KAAG1; experiment: SPR (Biacore); antibody captured on anti-human Fc, monomeric KAAG1 injected, 1:1 fit, average KD; humanized light and heavy chains (HH)
Description: as §2

B1: anti-KAAG1 Fab of well E10 (plate from Omniclonal library #3) (Fab, V domains shown)
VH: EVQLQQSGPELVKPGASVKISCKASGDTFTDYYMNWVKQSHGKSLEWIGDINPNYGGITYNQKFKGKATLTVDTSSSTAYMELRGLTSEDSAVYYCQAYYRNSDYWGQGTTLTVSS
VL: DIVMTQAAPSVPVTPGESVSISCRSSKSLLHSNGNTYLYWFLQRPGQSPQLLIYRMSNLASGVPDRFSGSGSGTAFTLRISRVEAEDVGVYYCMQHLEYPYTFGGGTKLEIK
OD450 [1]: 0.33 OD450 | OD450 [2]: 0.02 OD450 | OD450 (Fc-0447 1-60 (human)): -0.02 OD450

B2: 3D3 mouse anti-KAAG1 Fab (Fab, V domains shown)
VH: EVQLQQSVAELVRPGASVTLSCKASGYIFTDYEIHWVKQTPVHGLEWIGVIDPETGNTAFNQKFKGKATLTADISSSTAYMELSSLTSEDSAVYYCMGYSDYWGQGTTLTVSS
VL: DIVMTQSPSSLAVSIGQKVTMNCKSSQSLLNSNFQKNFLAWYQQKPGQSPKLLIYFASTRESSIPDRFIGSGSGTDFTLTISSVQAEDLADYFCQQHYSTPLTFGAGTKLELK
notes: Recombinant mouse Fab made in E. coli; also called 3D3 Fab
OD450 [2]: 1.21 OD450 | OD450 (Fc-0447 1-60 (human)): 1.33 OD450 | EC50 (read off the curve) [3]: ~0.5 µg/mL

B3: G12 (Fab, V domains shown)
VH: B2 VH with L20V, V42A
VL: DIVMTQSPKFMSTSVGDRVSITCKASQDVGTAVAWYQQKPGQSPELLIYWTSTRHTGVPDRFSGSGSGTDFTLTISSVQAEDLADYFCQQHYSIPLTFGAGTKLELR
OD450 [2]: 1.38 OD450

B4: 3D3 hybrid antibody: humanized light chain expressed with the chimeric heavy chain (antibody, V domains shown)
VH: B2 VH
VL: DIVMTQSPDSLAVSLGERATINCKSSQSLLNSNFQKNFLAWYQQKPGQPPKLLIYFASTRESSVPDRFSGSGSGTDFTLTISSLQAEDVAVYYCQQHYSTPLTFGQGTKLEIKR
notes: also called HC
Kd [4]: 0.309 nM | Ka [5]: 3.24e+09 M⁻¹ | koff [5]: 0.00073 s⁻¹ | kon [5]: 2.36e+06 M⁻¹ s⁻¹

B5: 3D3 mouse-human chimeric IgG1 anti-KAAG1 monoclonal antibody (antibody, V domains shown)
VH: B2 VH
VL: DIVMTQSPSSLAVSIGQKVTMNCKSSQSLLNSNFQKNFLAWYQQKPGQSPKLLIYFASTRESSIPDRFIGSGSGTDFTLTISSVQAEDLADYFCQQHYSTPLTFGAGTKLELKA
notes: Mouse variable regions on human IgG1 and kappa constant regions, made in 293E cells; In the Biacore experiment two KD values are told for this composition, under the labels m3D3 and CC; also called chimeric 3D3; m3D3
EC50 (read off the curve) [6]: ~0.4 µg/mL | Kd [7]: 0.235 nM | Ka [5]: 4.5e+09 M⁻¹ and 2.71e+09 M⁻¹ | Kd [5]: 0.368 nM | koff [5]: 0.00065 s⁻¹ and 0.00073 s⁻¹ | kon [5]: 2.91e+06 M⁻¹ s⁻¹ and 1.98e+06 M⁻¹ s⁻¹ | Kd [8]: 0.271 nM

B6: 3C4 mouse anti-KAAG1 Fab (Fab, V domains shown)
VH: EVQLQESGPDLVKPSQSLSLTCTVTGFSITSGYGWHWIRQFPGNKLEWMGYINYDGHNDYNPSLKSRISITQDTSKNQFFLQLNSVTTEDTATYYCASSYDGLFAYWGQGTLVTVSA
VL: DIVMSQSPSSMYASLGERVTITCKASQDIHNFLNWFQQKPGKSPKTLIFRANRLVDGVPSRFSGSGSGQDYSLTISSLEFEDLGIYSCLQYDEIPLTFGAGTKLELR
notes: Recombinant mouse Fab made in E. coli; also called 3C4 Fab
OD450 [2]: 0.25 OD450 | OD450 (Fc-0447 1-60 (human)): 0.57 OD450

B7: anti-KAAG1 Fab of well C2 (plate from Omniclonal library #3) (Fab, V domains shown)
VH: B6 VH with E1D, N53S, Y54F, D55N, H57D, N58S, D59N, Q72R, T88S, T111P
VL: DIQMTQSPSSMYASLGERVTLTCKASQDIHNYLNWFQQKPGKSPKTLIHRANRLVAGVPSRFSGSGSGQDYSLTISSLEYEDLGIYYCLQYDAFPLTFGAGTKLELK
OD450 [1]: 1.97 OD450 | OD450 [2]: 0.32 OD450

B8: anti-KAAG1 Fab of well D1 (plate from Omniclonal library #3) (Fab, V domains shown)
VH: B6 VH with N44D, N53S, Y54F, D55N, H57D, N58Y, D59N, Q72R, N84S
VL: B7 VL with Q3K, L21I, N31T, K45E, H49Y, A56D, L83M, A93E
OD450 [1]: 1.21 OD450 | OD450 [2]: 0.15 OD450

B9: 3D3 hybrid antibody: chimeric light chain expressed with the humanized heavy chain (antibody, human IgG1, V domains shown)
VH: EVQLVQSGAEVKKPGASVKVSCKASGYIFTDYEIHWVRQAPGQGLEWMGVIDPETGNTAFNQKFKGRVTITADTSTSTAYMELSSLTSEDTAVYYCMGYSDYWGQGTLVTVSS
VL: B5 VL
Ka [5]: 1.98e+09 M⁻¹ | koff [5]: 0.00111 s⁻¹ | kon [5]: 2.2e+06 M⁻¹ s⁻¹ | Kd [9]: 0.505 nM

B10: humanized 3D3 anti-KAAG1 antibody (human IgG1) (antibody, V domains shown)
VH: B9 VH
VL: B4 VL
notes: The residues before them (leader) are left out on that ground; also called h3D3; HH
Kd [10]: 0.439 nM | Ka [5]: 2.28e+09 M⁻¹ | koff [5]: 0.00111 s⁻¹ | kon [5]: 2.53e+06 M⁻¹ s⁻¹

B11: 3G10 mouse anti-KAAG1 Fab (Fab, V domains shown)
VH: EIQLQQSGPELVKPGASVKISCKASGYTFTDNYMNWVKQSHGKSLEWIGDINPYYGTTTYNQKFKGKATLTVDKSSRTAYMELRGLTSEDSAVYYCARDDWFDYWGQGTLVTVSA
VL: DVLMTQTPRSLSVSLGDQASISCRSSQSLLHSNGNTYLEWYLQKPGQPPKVLIYKVSNRFSGVPDRFSGSGSGTDFTLKISGVEAEDLGVYYCFQGSHVPLTFGAGTKLELK
notes: Recombinant mouse Fab made in E. coli; also called 3G10 Fab
OD450 [2]: 2.78 OD450
